Measured values taken from patent US20240117030A1 (Pfizer, published 2024).
Substitutions are numbered along the chain they refer to.

Assays:
[1] = target: recombinant human IL-13 (human, UniProt P35225 35-146); experiment: cell-based or functional assay
[2] = target: recombinant human IL-13 (human, UniProt P35225 35-146); experiment: cell-based or functional assay; remark: listed apart in the source
[3] = target: T1, recombinant human IL-4 (human, UniProt P05112 25-153); experiment: cell-based or functional assay
T1 sequence (looked up): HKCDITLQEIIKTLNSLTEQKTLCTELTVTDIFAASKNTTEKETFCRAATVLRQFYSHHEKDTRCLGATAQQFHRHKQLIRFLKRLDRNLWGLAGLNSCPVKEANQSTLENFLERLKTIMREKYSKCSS

[4] = target: recombinant human TSLP (glycosylated long form) (human, UniProt Q969D9 29-159); experiment: cell-based or functional assay
[5] = target: T2, human TSLP (long form) (human, UniProt Q969D9 29-159, Biotinylated on the Avi tag in some assays; glycosylated (Expi293F expression)); experiment: bridging sandwich ELISA: human TSLP coated, Tri-Fab-Fc titrated, IL-13-FLAG added, detected with HRP anti-FLAG (OD450nm)
T2 construct: biotinylated in some assays; also called lfhTSLP; hTSLP

[6] = target: T3, recombinant human IL-33 (human, UniProt O95760 112-270, limits assumed); experiment: cell-based or functional assay
T3 sequence (looked up): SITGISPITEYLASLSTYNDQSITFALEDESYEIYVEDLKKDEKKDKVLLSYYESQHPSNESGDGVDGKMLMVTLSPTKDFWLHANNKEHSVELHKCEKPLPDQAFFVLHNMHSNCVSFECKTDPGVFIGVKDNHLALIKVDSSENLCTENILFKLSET

B1: IL13-1307 (antibody, human IgG1, kappa, V domains shown)
VH: EVQLVESGGGLVQPGGSLRLSCAASGFTFSSYAMSWVRQAPGKGLEWVASISSGDTTYYPDSVKGRFTISRDNAKNSLYLQMNSLRAEDTAVYYCARLDGYYFGFPYWGQGTLVTVSS
VL: DIQMTQSPSSLSASVGDRVTITCKASESVDHSGSSLMHWYQQKPGKAPKLLIYRASNLESGVPSRFSGSGSGTDFTLTISSLQPEDFATYYCQQSNEDPWTFGGGTKVEIKR
IC50 (median), Monocyte CD23 expression [1]: 0.306 nM
IC50 (median), STAT6 phosphorylation in HT-29 cells [1]: 0.14 nM

B2: IL413TSLP-0008 (other)
heavy: EVQLVESGGGLVQPGGSLRLSCAASGFTFSSYAMSWVRQAPGKGLEWVASISSGDTTYYPDSVKGRFTISRDNAKNSLYLQMNSLRAEDTAVYYCARNEGYYFGLTLWGQGTLVTVSSASTKGPSVFPKAPSSKSTSGGTAALGCLVKDYFPEPVTVSWNSGALTSGVHTFPAVLQSSGLYSLSSSVTVPSSSLGTQTYICNVNHKPSNTKVDKKVEPKSCDKTHTCPPCPAPEAAGAPSVFLFPPKPKDTLMISRTPEVTCVVVDVSHEDPEVKFNWYVDGVEVHNAKTKPREEQYNSTYRVVSVLTVLHQDWLNGKEYKCKVSNKALPAPIEKTISKAKGQPREPQVCTLPPSREEMTKNQVSLWCLVKGFYPSDIAVEWESNGQPENNYKTTPPVLDSDGSFFLYSKLTVDKSRWQQGNVFSCSVMHEALHNHYTQKSLSLSPGK
chain 1: SYVLTQPPSVSVAPGQTARITCGGNNLGSKSVHWYQQKPGQAPVLVVYDDSDRPSWIPERFSGSNSGNTATLTISRGEAGDEADYYCQVWDSSSDHVVFGGGTKLTVLASTKGPSVFPLAPSSKSTSGGTAALGCLVKDYFPEPVTVSWNSGALTSGVHTFPAVLQSSGLYSLSSVVTVPSSSLGTQTYICNVNHKPSNTKVDKKVEPKSCGGGGSEVTLRESGPALVKPTQTLTLTCTFSGFSLSNFGEGLSWIRQPPGKGLEWLAHIYWDDDKRYNPSLKSRLTISKDTSRNQVVLTMTNMDPVDTATYYCARRETVFYWYFDVWGQGTTVTVSSASTKGPSVFPEAPSSKSTSGGTAALGCLVKDYFPEPVTVSWNSGALTSGVHTFPAVLQSSGLYSLGSVVTVPSSSLGTQTYICNVNHKPSNTKVDKKVEPKSCDKTHTCPPCPAPEAAGAPSVFLFPPKPKDTLMISRTPEVTCVVVDVSHEDPEVKFNWYVDGVEVHNAKTKPREEQYNSTYRVVSVLTVLHQDWLNGKEYKCKVSNKALPAPIEKTISKAKGQPREPQVYTLPPCREEMTKNQVSLSCAVKGFYPSDIAVEWESNGQPENNYKTTPPVLDSDGSFFLVSKLTVDKSRWQQGNVFSCSVMHEALHNHYTQKSLSLSPGK
light 1: DIQMTQSPSSLSASVGDRVTITCKASESVDHFGWSLVHWYQQKPGKAPKLLIYRASNLESGVPSRFSGSGSGTDFTLTISSLQPEDFATYYCQQSNEDPWTFGGGTKVEIKRTVAAPSVFIFPPSDEQLKSGTASVSCLLNNFYPREAKVQWKVDNALQSGNSQESVTEQDSKDSTYSLDSTLTLSKADYEKHKVYACEVTHQGLSSPVTKSFNRGEC
light 2: B2 light 1 with E27Q, H31E, F32D, W34D, L36Y, V37M, H38N, R54A, W100P, D180K
chain 2: QMQLVESGGGVVQPGRSLRLSCAASGFTFRTYGMHWVRQAPGKGLEWVAVIWYDGSNKHYADSVKGRFTITRDNSKNTLNLQMNSLRAEDTAVYYCARAPQWELVHEAFDIWGQGTMVTVSSGQPKAAPSVTLFPPSSEELQANKATLVCLISDFYPGAVTVAWKADSSPVKAGVETTTPSKQSNNKYAASSYLSLTPEQWKSHRSYSCQVTHEGSTVEKTVAPTECS
a-hIL-13 bioassay (IC50, pM) [2]: 10.6 pM
a-hIL-4 bioassay IC50, pM) [3]: 9.07 pM
a-TSLP TARC bioassay (IC50; pM) [4]: 17.7 pM

B3: IL413TSLP-0008 (trispecific antibody, human IgG1, kappa, lambda)
heavy: B2 heavy
chain 1: B2 chain 1
light 1: B2 light 1
light 2: B2 light 1 with E27Q, H31E, F32D, W34D, L36Y, V37M, H38N, R54A, W100P, D180K
chain 2: B2 chain 2
EC50 (read off the curve) [5]: ~0.6 nM

B4: IL33-158-152 (antibody, human IgG1, kappa, V domains shown)
VH: EVQLVESGGGLVQPGGSLRLSCAASGFTFSSYWMYWVRQAPGKGLEWVAAITPNAGEDYYPESVKGRFTISRDNAKNSLYLQMNSLRAEDTAVYYCARGHYYYTSYSLGYWGQGTLVTVSS
VL: DIQMTQSPSSLSASVGDRVTITCKASQNINKHLDWYQQKPGKAPKLLIYFTNNLQTGVPSRFSGSGSGTDFTLTISSLQPEDFATYYCFQYNQGWTFGGGTKVEIKR
IC50 (mean), HEK-Blue IL-33 SEAP [6]: 0.0428 nM

B5: IL33-0726 (antibody, human IgG1, kappa, V domains shown)
VH: B4 VH with H100Q, S105K
VL: B4 VL with K24R, N28P, N30H, K31N, T51G, N52K, T56E, N92K, Q93K, T96S
IC50 (mean), HEK-Blue IL-33 SEAP [6]: 0.00827 nM
